# B1: Arthrobacter sp. 32c β-D-galactosidase (Arthrobacter sp.) (protein)
# chain: MGKRFPSGWFSPRVHPPRRQRSPMTNQATPGTASVWNNIEGIGFGGDYNPEQWPVSVRLEDLELMQEAGVNFLSVGIFSWALLEPAEGQYDFGWLDDVMDNLHGIGVKVALATATAAPPAWLVRKHPEILPVTADGTTLGPGSRRHYTPSSAVYRKYAAGITRVLAERYKDHPALALWHVDNELGCHVSEFYGEEDAAAFRLWLERRYGTIDALNAAWGTAFWSQHYGSFEEILPPGVAPSTLNPGQQLDFQRFNSWALMDYYRSLVAVLREVTPAVPCTTNLMASSATKSMDYFSWAKDLDVIANDHYLVAADPERHIELAFSADLTRGIAGGDPWILMEHSTSAVNWQPRNQPKMPGEMLRNSLAHVARGADAVMFFQWRQSFAGSEKFHSAMVPHGGRDTRVWREVVDLGAALQLLAPVRGSRVESRAAIVFDYEAWWASEIDSKPSIDVRYLDLLRAFHRSLFLRGVSVDMVHPSASLDGYDLVLVCTLYSVTDEAAANIAAAAAGGATVLVSYFSGITDEKDHVRLGGYPGAFRELLGVRVEEFHPLLAGSQLKLSDGTVSSIWSEHVHLDGAEAFQTFTGYPLEGVPSLTRRAVGTGAAWYLATFPDRDGIESLVDRLLAESGVSPVAEADAGVELTRRRSADGGSFLFAINHTRAAASVRASGTDVLSGERFTGTVEAGSVAVIAED
# notes: full length, recombinant, no tag apparent (own stop codon in reverse primer); starts MGKRFPS (from primer)
# Substrate: O=[N+]([O-])c1ccccc1O[C@@H]1O[C@H](CO)[C@H](O)[C@H](O)[C@H]1O
# Assay: purified protein
# Assay type: biochemical, Arthrobacter sp.
# Details: 50 °C (optimum; also at 10, 20, 30, 40, 55 °C), pH 6.5, 0.02 M potassium phosphate
protein,measurement,value
B1,Km,2620 ± 210 µM
same,kcat,212.4 ± 1.67 s⁻¹
same,kcat/Km,81100 ± 7760 M⁻¹ s⁻¹

# — PMC2723119, “A new cold-adapted β-D-galactosidase from the Antarctic Arthrobacter sp. 32c – gene cloning, overexpression, purification and properties” (BMC Microbiology, 2009)
